Test results as given in paper PMC11389407.

Key:
[1] = target: F_((ecto))-K394R (F_((ecto))-WT with substitution of Lys394 with Arg394) fused with the T4 fibritin trimerization domain (respiratory syncytial virus (strain of the construct not stated) | T4) (UniProt P03420); experiment: MST; RED-NHS-labelled F_((ecto)) protein at 50 nM pretreated with DMSO, IGF1R titrated from 30.6 pM to 2 µM, PBS, Monolith NT.115
[2] = target: F_((ecto))-WT (1–513 aa) fused with the T4 fibritin trimerization domain (respiratory syncytial virus (strain of the construct not stated) | T4) (UniProt P03420); experiment: as above

Question: “extracellular domain of the human IGF1R protein (Met 1−Asn 932) (from UniProt P08069 31-932) (domain or fragment)” was tested. Which Kd [1] did it give?
Answer: The Kd was 12 nM.

Question: And the Kd [2]?
Answer: The Kd was 11 nM.
